Measurements reported in patent US20260015399A1 (Boehringer Ingelheim, published 2026).
*1 amine or outer side, *2 acyl side, *3 side chain or, on linkers, in order; H or OH if unused. Side-chain parts run from the residue outwards. The star is where a group is joined. C18 diacid = O=C(O)CCCCCCCCCCCCCCCCC(=O)*; γGlu = O=C(O)[C@H](CCC(=O)[*:2])N[*:1]; Isovaleryl = CC(C)CC(=O)*; Ahx = NCCCCCC(=O)O

Target: T1, human NPY2 receptor (human, UniProt P49146 1-381)
T1 construct: whole, on cells; also called hNPY2-R; hNPY2R
T1 sequence (looked up): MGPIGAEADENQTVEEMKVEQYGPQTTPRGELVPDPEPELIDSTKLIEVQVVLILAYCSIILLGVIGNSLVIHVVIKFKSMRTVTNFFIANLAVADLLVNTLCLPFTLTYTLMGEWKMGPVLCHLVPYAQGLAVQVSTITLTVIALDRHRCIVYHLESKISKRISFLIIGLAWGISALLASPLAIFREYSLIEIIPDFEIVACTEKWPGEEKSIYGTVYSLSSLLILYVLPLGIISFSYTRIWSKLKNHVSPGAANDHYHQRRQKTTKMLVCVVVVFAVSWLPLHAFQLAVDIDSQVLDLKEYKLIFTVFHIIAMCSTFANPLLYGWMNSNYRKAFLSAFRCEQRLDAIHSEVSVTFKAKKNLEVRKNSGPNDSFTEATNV
Assay: RLB: displacement of 125I-PYY(1-36) from hNPY2R membranes

B1: Compound 36 (peptide)
peptide: Isovaleryl-APAK([Ahx-γGlu-C18 diacid])PEEAATPEEIQRYYVSLRHYYNWLTRQRY-NH2
SMILES: CC[C@H](C)[C@H](NC(=O)[C@H](CCC(=O)O)NC(=O)[C@H](CCC(=O)O)NC(=O)[C@@H]1CCCN1C(=O)[C@@H](NC(=O)[C@H](C)NC(=O)[C@H](C)NC(=O)[C@H](CCC(=O)O)NC(=O)[C@H](CCC(=O)O)NC(=O)[C@@H]1CCCN1C(=O)[C@H](CCCCNC(=O)CCCCCNC(=O)CC[C@H](NC(=O)CCCCCCCCCCCCCCCCC(=O)O)C(=O)O)NC(=O)[C@H](C)NC(=O)[C@@H]1CCCN1C(=O)[C@H](C)NC(=O)CC(C)C)[C@@H](C)O)C(=O)N[C@@H](CCC(N)=O)C(=O)N[C@@H](CCCNC(=N)N)C(=O)N[C@@H](Cc1ccc(O)cc1)C(=O)N[C@@H](Cc1ccc(O)cc1)C(=O)N[C@H](C(=O)N[C@@H](CO)C(=O)N[C@@H](CC(C)C)C(=O)N[C@@H](CCCNC(=N)N)C(=O)N[C@@H](Cc1c[nH]cn1)C(=O)N[C@@H](Cc1ccc(O)cc1)C(=O)N[C@@H](Cc1ccc(O)cc1)C(=O)N[C@@H](CC(N)=O)C(=O)N[C@@H](Cc1c[nH]c2ccccc12)C(=O)N[C@@H](CC(C)C)C(=O)N[C@H](C(=O)N[C@@H](CCCNC(=N)N)C(=O)N[C@@H](CCC(N)=O)C(=O)N[C@@H](CCCNC(=N)N)C(=O)N[C@@H](Cc1ccc(O)cc1)C(N)=O)[C@@H](C)O)C(C)C
For B1, which Ki is on record?
Its Ki is 1.25 nM.

B2: Compound 38 (peptide)
peptide: Isovaleryl-APEK([Ahx-γGlu-C18 diacid])PEEDATPEELQEYYVSLRHYYNWLTRQRY-NH2
SMILES: CC(C)CC(=O)N[C@@H](C)C(=O)N1CCC[C@H]1C(=O)N[C@@H](CCC(=O)O)C(=O)N[C@@H](CCCCNC(=O)CCCCCNC(=O)CC[C@H](NC(=O)CCCCCCCCCCCCCCCCC(=O)O)C(=O)O)C(=O)N1CCC[C@H]1C(=O)N[C@@H](CCC(=O)O)C(=O)N[C@@H](CCC(=O)O)C(=O)N[C@@H](CC(=O)O)C(=O)N[C@@H](C)C(=O)N[C@H](C(=O)N1CCC[C@H]1C(=O)N[C@@H](CCC(=O)O)C(=O)N[C@@H](CCC(=O)O)C(=O)N[C@@H](CC(C)C)C(=O)N[C@@H](CCC(N)=O)C(=O)N[C@@H](CCC(=O)O)C(=O)N[C@@H](Cc1ccc(O)cc1)C(=O)N[C@@H](Cc1ccc(O)cc1)C(=O)N[C@H](C(=O)N[C@@H](CO)C(=O)N[C@@H](CC(C)C)C(=O)N[C@@H](CCCNC(=N)N)C(=O)N[C@@H](Cc1c[nH]cn1)C(=O)N[C@@H](Cc1ccc(O)cc1)C(=O)N[C@@H](Cc1ccc(O)cc1)C(=O)N[C@@H](CC(N)=O)C(=O)N[C@@H](Cc1c[nH]c2ccccc12)C(=O)N[C@@H](CC(C)C)C(=O)N[C@H](C(=O)N[C@@H](CCCNC(=N)N)C(=O)N[C@@H](CCC(N)=O)C(=O)N[C@@H](CCCNC(=N)N)C(=O)N[C@@H](Cc1ccc(O)cc1)C(N)=O)[C@@H](C)O)C(C)C)[C@@H](C)O
How did the Ki turn out when B2 was run?
Its Ki is 12.4 nM.

B3: Compound 39 (peptide)
peptide: Isovaleryl-APEK([Ahx-γGlu-C18 diacid])PEEDASPEALQEYYVSLRHYYNWLTRQRY-NH2
SMILES: CC(C)CC(=O)N[C@@H](C)C(=O)N1CCC[C@H]1C(=O)N[C@@H](CCC(=O)O)C(=O)N[C@@H](CCCCNC(=O)CCCCCNC(=O)CC[C@H](NC(=O)CCCCCCCCCCCCCCCCC(=O)O)C(=O)O)C(=O)N1CCC[C@H]1C(=O)N[C@@H](CCC(=O)O)C(=O)N[C@@H](CCC(=O)O)C(=O)N[C@@H](CC(=O)O)C(=O)N[C@@H](C)C(=O)N[C@@H](CO)C(=O)N1CCC[C@H]1C(=O)N[C@@H](CCC(=O)O)C(=O)N[C@@H](C)C(=O)N[C@@H](CC(C)C)C(=O)N[C@@H](CCC(N)=O)C(=O)N[C@@H](CCC(=O)O)C(=O)N[C@@H](Cc1ccc(O)cc1)C(=O)N[C@@H](Cc1ccc(O)cc1)C(=O)N[C@H](C(=O)N[C@@H](CO)C(=O)N[C@@H](CC(C)C)C(=O)N[C@@H](CCCNC(=N)N)C(=O)N[C@@H](Cc1c[nH]cn1)C(=O)N[C@@H](Cc1ccc(O)cc1)C(=O)N[C@@H](Cc1ccc(O)cc1)C(=O)N[C@@H](CC(N)=O)C(=O)N[C@@H](Cc1c[nH]c2ccccc12)C(=O)N[C@@H](CC(C)C)C(=O)N[C@H](C(=O)N[C@@H](CCCNC(=N)N)C(=O)N[C@@H](CCC(N)=O)C(=O)N[C@@H](CCCNC(=N)N)C(=O)N[C@@H](Cc1ccc(O)cc1)C(N)=O)[C@@H](C)O)C(C)C
How did the Ki turn out when B3 was run?
Its Ki is 2.73 nM.

B4: Compound 41 (peptide)
peptide: Isovaleryl-APEK([Ahx-γGlu-C18 diacid])PEEDAEPEELQRYYTSLRHYYQWLTRQRY-NH2
SMILES: CC(C)CC(=O)N[C@@H](C)C(=O)N1CCC[C@H]1C(=O)N[C@@H](CCC(=O)O)C(=O)N[C@@H](CCCCNC(=O)CCCCCNC(=O)CC[C@H](NC(=O)CCCCCCCCCCCCCCCCC(=O)O)C(=O)O)C(=O)N1CCC[C@H]1C(=O)N[C@@H](CCC(=O)O)C(=O)N[C@@H](CCC(=O)O)C(=O)N[C@@H](CC(=O)O)C(=O)N[C@@H](C)C(=O)N[C@@H](CCC(=O)O)C(=O)N1CCC[C@H]1C(=O)N[C@@H](CCC(=O)O)C(=O)N[C@@H](CCC(=O)O)C(=O)N[C@@H](CC(C)C)C(=O)N[C@@H](CCC(N)=O)C(=O)N[C@@H](CCCNC(=N)N)C(=O)N[C@@H](Cc1ccc(O)cc1)C(=O)N[C@@H](Cc1ccc(O)cc1)C(=O)N[C@H](C(=O)N[C@@H](CO)C(=O)N[C@@H](CC(C)C)C(=O)N[C@@H](CCCNC(=N)N)C(=O)N[C@@H](Cc1c[nH]cn1)C(=O)N[C@@H](Cc1ccc(O)cc1)C(=O)N[C@@H](Cc1ccc(O)cc1)C(=O)N[C@@H](CCC(N)=O)C(=O)N[C@@H](Cc1c[nH]c2ccccc12)C(=O)N[C@@H](CC(C)C)C(=O)N[C@H](C(=O)N[C@@H](CCCNC(=N)N)C(=O)N[C@@H](CCC(N)=O)C(=O)N[C@@H](CCCNC(=N)N)C(=O)N[C@@H](Cc1ccc(O)cc1)C(N)=O)[C@@H](C)O)[C@@H](C)O
With B4 as the binder, how does the Ki read?
The Ki was 19.8 nM.

B5: Compound 42 (peptide)
peptide: Isovaleryl-APEK([Ahx-γGlu-C18 diacid])PEEPATPEELQRYYVSLRHYYNWLTRQRY-NH2
SMILES: CC(C)CC(=O)N[C@@H](C)C(=O)N1CCC[C@H]1C(=O)N[C@@H](CCC(=O)O)C(=O)N[C@@H](CCCCNC(=O)CCCCCNC(=O)CC[C@H](NC(=O)CCCCCCCCCCCCCCCCC(=O)O)C(=O)O)C(=O)N1CCC[C@H]1C(=O)N[C@@H](CCC(=O)O)C(=O)N[C@@H](CCC(=O)O)C(=O)N1CCC[C@H]1C(=O)N[C@@H](C)C(=O)N[C@H](C(=O)N1CCC[C@H]1C(=O)N[C@@H](CCC(=O)O)C(=O)N[C@@H](CCC(=O)O)C(=O)N[C@@H](CC(C)C)C(=O)N[C@@H](CCC(N)=O)C(=O)N[C@@H](CCCNC(=N)N)C(=O)N[C@@H](Cc1ccc(O)cc1)C(=O)N[C@@H](Cc1ccc(O)cc1)C(=O)N[C@H](C(=O)N[C@@H](CO)C(=O)N[C@@H](CC(C)C)C(=O)N[C@@H](CCCNC(=N)N)C(=O)N[C@@H](Cc1c[nH]cn1)C(=O)N[C@@H](Cc1ccc(O)cc1)C(=O)N[C@@H](Cc1ccc(O)cc1)C(=O)N[C@@H](CC(N)=O)C(=O)N[C@@H](Cc1c[nH]c2ccccc12)C(=O)N[C@@H](CC(C)C)C(=O)N[C@H](C(=O)N[C@@H](CCCNC(=N)N)C(=O)N[C@@H](CCC(N)=O)C(=O)N[C@@H](CCCNC(=N)N)C(=O)N[C@@H](Cc1ccc(O)cc1)C(N)=O)[C@@H](C)O)C(C)C)[C@@H](C)O
How did the Ki turn out when B5 was run?
The Ki was 1.98 nM.

B6: Compound 43 (peptide)
peptide: Isovaleryl-APAK([Ahx-γGlu-C18 diacid])PEAAAEPEELQRYYVSLRHYYNWLTRQRY-NH2
SMILES: CC(C)CC(=O)N[C@@H](C)C(=O)N1CCC[C@H]1C(=O)N[C@@H](C)C(=O)N[C@@H](CCCCNC(=O)CCCCCNC(=O)CC[C@H](NC(=O)CCCCCCCCCCCCCCCCC(=O)O)C(=O)O)C(=O)N1CCC[C@H]1C(=O)N[C@@H](CCC(=O)O)C(=O)N[C@@H](C)C(=O)N[C@@H](C)C(=O)N[C@@H](C)C(=O)N[C@@H](CCC(=O)O)C(=O)N1CCC[C@H]1C(=O)N[C@@H](CCC(=O)O)C(=O)N[C@@H](CCC(=O)O)C(=O)N[C@@H](CC(C)C)C(=O)N[C@@H](CCC(N)=O)C(=O)N[C@@H](CCCNC(=N)N)C(=O)N[C@@H](Cc1ccc(O)cc1)C(=O)N[C@@H](Cc1ccc(O)cc1)C(=O)N[C@H](C(=O)N[C@@H](CO)C(=O)N[C@@H](CC(C)C)C(=O)N[C@@H](CCCNC(=N)N)C(=O)N[C@@H](Cc1c[nH]cn1)C(=O)N[C@@H](Cc1ccc(O)cc1)C(=O)N[C@@H](Cc1ccc(O)cc1)C(=O)N[C@@H](CC(N)=O)C(=O)N[C@@H](Cc1c[nH]c2ccccc12)C(=O)N[C@@H](CC(C)C)C(=O)N[C@H](C(=O)N[C@@H](CCCNC(=N)N)C(=O)N[C@@H](CCC(N)=O)C(=O)N[C@@H](CCCNC(=N)N)C(=O)N[C@@H](Cc1ccc(O)cc1)C(N)=O)[C@@H](C)O)C(C)C
B6 was tested. Which Ki did it give?
Its Ki is 2.49 nM.
